Results taken from patent US20200040086A1 (BERLIN CHEMIE, published 2020).

How the values were obtained:
Assay in all cases: peptide microarray of 8mer LY75 peptides, LY75_A1 at 1 µg/mL, anti-human IgG Alexa 647
YDDREFIY = molecular target: T1, YDDREFIY
T1 construct: 8mer of LY75 on the peptide microarray, chart Region 3
T1 peptide: YDDREFIY
Experimental: (§1) The peptide microarray analysis was performed by LC Sciences, Houston Tex., in brief the method comprised the following steps:—Contiguous 8mer peptides of LY75 protein having […] spanning residues 216 to 1666 of the full length LY75 protein were synthesized and immobilized on a microarray chip. The chip comprised three panels such that the experiment was performed in triplicate. The microarray was addressed with LY75_A1 to identify the peptides to which the antibody bound. The binding assay was performed under the following conditions:—
(§2) The microarray comprising the contiguous peptides in triplicate was washed with 1 mL of binding buffer at 4° C. for 20 min. It was then incubated with 1 μg/mL LY75_A1 in binding buffer (pH 7.0) at 4° C. for 2 hrs. The array was again washed with 0.5 mL of washing buffer at 4° C. for 30 min then incubated with 25 ng/mL anti-human IgG Alexa 647 conjugate in binding buffer (pH 7.0) at 4° C. for 1 hr. The array was again washed with 0.5 mL of washing buffer at 4° C. for 30 min.

DHFTYSRY = molecular target: T2, DHFTYSRY
T2 construct: 8mer of LY75 on the peptide microarray, chart Region 4
T2 peptide: DHFTYSRY
Experimental: as §1, §2

VSLCQKYS = molecular target: T3, VSLCQKYS
T3 construct: 8mer of LY75 on the peptide microarray, chart Region 6
T3 peptide: VSLCQKYS
Experimental: as §1, §2

DREFIYLR = molecular target: T4, DREFIYLR
T4 construct: 8mer of LY75 on the peptide microarray, chart Region 3
T4 peptide: DREFIYLR
Experimental: as §1, §2

ELTYSNFH = molecular target: T5, ELTYSNFH
T5 construct: 8mer of LY75 on the peptide microarray, chart Region 5
T5 peptide: ELTYSNFH
Experimental: as §1, §2

WHRFPVTF = molecular target: T6, WHRFPVTF
T6 construct: 8mer of LY75 on the peptide microarray, chart Region 4
T6 peptide: WHRFPVTF
Experimental: as §1, §2

LSCYKVFH = molecular target: T7, LSCYKVFH
T7 construct: 8mer of LY75 on the peptide microarray, chart Region 2
T7 peptide: LSCYKVFH
Experimental: as §1, §2

YFHQHSIL = molecular target: T8, YFHQHSIL
T8 construct: 8mer of LY75 on the peptide microarray, chart Region 8
T8 peptide: YFHQHSIL
Experimental: as §1, §2

EAVYFHQH = molecular target: T9, EAVYFHQH
T9 construct: 8mer of LY75 on the peptide microarray, chart Region 8
T9 peptide: EAVYFHQH
Experimental: as §1, §2

YKSDQALH = molecular target: T10, YKSDQALH
T10 construct: 8mer of LY75 on the peptide microarray, chart Region 10
T10 peptide: YKSDQALH
Experimental: as §1, §2

HFTYSRYP = molecular target: T11, HFTYSRYP
T11 construct: 8mer of LY75 on the peptide microarray, chart Region 4
T11 peptide: HFTYSRYP
Experimental: as §1, §2

TSCSERHF = molecular target: T12, TSCSERHF
T12 construct: 8mer of LY75 on the peptide microarray, chart Region 6
T12 peptide: TSCSERHF
Experimental: as §1, §2

SRYPWHRF = molecular target: T13, SRYPWHRF
T13 construct: 8mer of LY75 on the peptide microarray, chart Region 4
T13 peptide: SRYPWHRF
Experimental: as §1, §2

YLNNLYKI = molecular target: T14, YLNNLYKI
T14 construct: 8mer of LY75 on the peptide microarray, chart Region 7
T14 peptide: YLNNLYKI
Experimental: as §1, §2

AVYFHQHS = molecular target: T15, AVYFHQHS
T15 construct: 8mer of LY75 on the peptide microarray, chart Region 8
T15 peptide: AVYFHQHS
Experimental: as §1, §2

TYSNFHPL = molecular target: T16, TYSNFHPL
T16 construct: 8mer of LY75 on the peptide microarray, chart Region 5
T16 peptide: TYSNFHPL
Experimental: as §1, §2

PIDDHFTY = molecular target: T17, PIDDHFTY
T17 construct: 8mer of LY75 on the peptide microarray, chart Region 4
T17 peptide: PIDDHFTY
Experimental: as §1, §2

RELTYSNF = molecular target: T18, RELTYSNF
T18 construct: 8mer of LY75 on the peptide microarray, chart Region 5
T18 peptide: RELTYSNF
Experimental: as §1, §2

YSRYPWHR = molecular target: T19, YSRYPWHR
T19 construct: 8mer of LY75 on the peptide microarray, chart Region 4
T19 peptide: YSRYPWHR
Experimental: as §1, §2

FTSCSERH = molecular target: T20, FTSCSERH
T20 construct: 8mer of LY75 on the peptide microarray, chart Region 6
T20 peptide: FTSCSERH
Experimental: as §1, §2

SCYKVFHA = molecular target: T21, SCYKVFHA
T21 construct: 8mer of LY75 on the peptide microarray, chart Region 2
T21 peptide: SCYKVFHA
Experimental: as §1, §2

YPWHRFPV = molecular target: T22, YPWHRFPV
T22 construct: 8mer of LY75 on the peptide microarray, chart Region 4
T22 peptide: YPWHRFPV
Experimental: as §1, §2

FVSLCQKY = molecular target: T23, FVSLCQKY
T23 construct: 8mer of LY75 on the peptide microarray, chart Region 6
T23 peptide: FVSLCQKY
Experimental: as §1, §2

GSRWIQYK = molecular target: T24, GSRWIQYK
T24 construct: 8mer of LY75 on the peptide microarray, chart Region 10
T24 peptide: GSRWIQYK
Experimental: as §1, §2

Measured: binding result

B1: LY75_A1 (antibody, V domains shown)
VH: EVQLVESGGGLVKPGGSLRLSCAASGFTYSNAWMSWVRQAPGKGLEWVGRIKSKTDGGTTDYAAPVQGRFTISRDDSKNTLYLQMNSLKTEDTAVYYCTIFGVVSFDYWGQGTLVTVSS
VL: DVQMTQSPSSLSASVGDRVTITCRASQSISDYLSWYQQRPGKAPNLLIYAASNLKTGVPSRFSGSGSGTDFTLTISTLQPEDFATYYCQQSYRSPWTFGQGTKVEIKR
notes: detected with anti-human IgG in the microarray; also called antibody LY75_A1; LY75_A1 monoclonal antibody
binds: all assays above
